Results reported in publication PMC6663034, “ACAP1 assembles into an unusual protein lattice for membrane deformation through multiple stages” (PLoS Computational Biology, 2019).

Target: the molecule itself
Experiment: cryo-EM structure; cryo-electron tomography and sub-tomogram averaging of the ACAP1^BAR-PH coat on non-tubulated (spherical) portions of liposomes; average of 233 coat particles; dimer model PDB 4CKG fitted into the density; dimers to tetramer on membrane

B1: ACAP1^BAR-PH (a.a. 1-377) (domain or fragment, UniProt Q15027 1-377, looked up)
chain: MTVKLDFEECLKDSPRFRASIELVEAEVSELETRLEKLLKLGTGLLESGRHYLAASRAFVVGICDLARLGPPEPMMAECLEKFTVSLNHKLDSHAELLDATQHTLQQQIQTLVKEGLRGFREARRDFWRGAESLEAALTHNAEVPRRRAQEAEEAGAALRTARAGYRGRALDYALQINVIEDKRKFDIMEFVLRLVEAQATHFQQGHEELSRLSQYRKELGAQLHQLVLNSAREKRDMEQRHVLLKQKELGGEEPEPSLREGPGGLVMEGHLFKRASNAFKTWSRRWFTIQSNQLVYQKKYKDPVTVVVDDLRLCTVKLCPDSERRFCFEVVSTSKSCLLQADSERLLQLWVSAVQSSIASAFSQARLDDSPRGPGQ
notes: ACAP1 (Arfgap with Coil-coil, Ankryin repeat, PH domain 1), BAR-PH tandem, a.a; 1-377; also called BAR-PH tandem of ACAP1; wild-type ACAP1^BAR-PH; source: E. coli BL21 (DE3), purified (glutathione-Sepharose 4B, GST removed with Precision Protease)
stoichiometry N: 4
